A word on the stoichiometry N: it is the number of molecules, sites or subunits per partner or assembly.

The values that follow come from paper doi:10.1101/2021.01.04.425348.

Assay [1] deals with HSA 82-aa RNC with Cys34, Cys53, and Cys62 mutated to Ala (human). Put plainly: high-speed atomic force microscopy.
The target in assay [2] is protein disulfide isomerase (PDI), wild type (human) (UniProt P07237). Put plainly: high-speed atomic force microscopy.

Sequence of protein disulfide isomerase (PDI), wild type (P07237 18-508): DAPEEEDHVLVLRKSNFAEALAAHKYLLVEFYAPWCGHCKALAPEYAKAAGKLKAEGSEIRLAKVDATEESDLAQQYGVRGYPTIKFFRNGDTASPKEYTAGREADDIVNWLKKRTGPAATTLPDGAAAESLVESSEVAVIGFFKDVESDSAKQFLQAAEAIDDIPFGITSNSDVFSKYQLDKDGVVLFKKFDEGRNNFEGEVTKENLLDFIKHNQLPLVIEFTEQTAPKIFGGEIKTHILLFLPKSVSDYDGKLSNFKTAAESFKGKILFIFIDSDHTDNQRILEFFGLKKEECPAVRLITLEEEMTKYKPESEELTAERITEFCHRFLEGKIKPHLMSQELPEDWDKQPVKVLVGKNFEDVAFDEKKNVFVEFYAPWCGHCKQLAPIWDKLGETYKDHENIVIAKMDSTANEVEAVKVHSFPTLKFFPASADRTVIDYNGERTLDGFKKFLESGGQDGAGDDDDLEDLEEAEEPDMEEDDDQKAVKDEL
Sequence of protein disulfide isomerase (PDI), wild type, P07237 18-508 (enzyme; other documents disagree on this pair) (P07237 18-508): as above

“ER-resident protein 46 (ERp46), wild type (from UniProt Q8NBS9 33-432) (enzyme)” displayed an RNC binding time (8/59 molecules) in assay [1] of 60 s.

For “protein disulfide isomerase (PDI), wild type, P07237 18-508 (enzyme; other documents disagree on this pair)”, the stoichiometry N in assay [2] turned out to be 2.

In assay [1], “protein disulfide isomerase (PDI), wild type (from UniProt P07237 18-508) (enzyme)” came in with an RNC binding time (PDI homodimer, 17/19 molecules) greater than 60 s and an RNC binding time (PDI monomer, 52/55 molecules) of less than 10 s.
